Results from publication PMC5492851.

Tests used:
[1] = molecular target: cellular microtubules (polymerised tubulin) (human (endogenous in HeLa)) (UniProt P68363)
[2] = molecular target: cellular microtubules (polymerised tubulin) (human (endogenous in HeLa)) (UniProt P68363); remark: listed apart in the source
[3] = molecular target: cellular microtubules (polymerised tubulin) (human (endogenous in HeLa)) (UniProt P68363); test: FRAP; as a1, cells treated with 1 μM Nocodazole (30 min before and during FRAP) to disassemble microtubules
[4] = molecular target: cellular microtubules (polymerised tubulin) (human (endogenous in HeLa)) (UniProt P68363); test: FRAP; live untreated reporter cells, 37°C, 5% CO2; EYFP bleached in a circular ROI of 2 μm radius in the cytoplasm; recovery fitted with two exponentials (A1 diffusing phase, A2 MT-bound phase)

Sequence of UniProt P68363 (P68363 whole entry, chain 1 of 2): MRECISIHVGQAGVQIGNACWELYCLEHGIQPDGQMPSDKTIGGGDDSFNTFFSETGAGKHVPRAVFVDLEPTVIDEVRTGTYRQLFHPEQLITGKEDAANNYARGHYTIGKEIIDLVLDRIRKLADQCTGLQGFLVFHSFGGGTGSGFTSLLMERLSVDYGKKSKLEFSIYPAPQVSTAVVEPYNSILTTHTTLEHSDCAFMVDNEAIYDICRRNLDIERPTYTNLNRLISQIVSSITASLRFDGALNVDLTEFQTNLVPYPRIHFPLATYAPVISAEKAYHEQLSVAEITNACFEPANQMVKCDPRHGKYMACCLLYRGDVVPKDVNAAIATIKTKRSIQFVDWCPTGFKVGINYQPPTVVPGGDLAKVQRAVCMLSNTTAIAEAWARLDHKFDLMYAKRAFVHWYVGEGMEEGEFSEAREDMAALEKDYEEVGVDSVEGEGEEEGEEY
Sequence of UniProt P68363 (P07437 whole entry, chain 2 of 2, further chain): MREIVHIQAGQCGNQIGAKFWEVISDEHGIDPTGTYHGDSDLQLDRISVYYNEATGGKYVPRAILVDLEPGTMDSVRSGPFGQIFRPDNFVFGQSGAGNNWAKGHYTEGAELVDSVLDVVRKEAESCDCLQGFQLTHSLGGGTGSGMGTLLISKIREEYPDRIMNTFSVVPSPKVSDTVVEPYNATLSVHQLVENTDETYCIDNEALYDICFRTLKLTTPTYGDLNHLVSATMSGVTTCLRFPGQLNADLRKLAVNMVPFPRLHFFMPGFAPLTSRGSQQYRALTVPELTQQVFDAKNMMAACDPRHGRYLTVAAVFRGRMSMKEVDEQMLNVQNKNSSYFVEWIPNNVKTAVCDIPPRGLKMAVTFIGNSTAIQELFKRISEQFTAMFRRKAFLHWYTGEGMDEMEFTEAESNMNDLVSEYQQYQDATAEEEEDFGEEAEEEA

NFRET of CST during treatment with 1 μM nocodazole (time course; at 10 min) [1]: 50%
NFRET of CST (intramolecular, ECFP to EYFP) along MTs in untreated cells [2]: 14.5
fraction of the mobile molecules in the MT-bound phase (A2), with Nocodazole [3]: 47%
fraction of the mobile molecules in the MT-bound phase (A2) [4]: 72%
time constant of fluorescence recovery of the MT-bound phase (τ2) [4]: 35.2 s
Substance: Conformational Sensitive Tau sensor (ECFP-Tau-EYFP, full length human Tau-D, 0N4R) (from UniProt P10636-6 1-383) (natural protein)
